# Biological target: 53BP1 (UniProt Q12888)
# Assay: co-immunoprecipitation, Western blot
# Details: reference: wild type MOF, 3-6 h after 10 Gy; sites T392
substance,measurement,value
"MOF (hMOF) (from UniProt Q9H7Z6) MOF-T392A, 3-6 h after 10 Gy",binding against the reference,stronger
